In article PMC8154523:

Tests used:
Assay in all cases: NMR
Details in all cases: 30 °C
Asp77 (position 77, […]) = system: Asp77 (position 77, […])
Asp46 (position 46, […]) = system: Asp46 (position 46, […])
Glu43 (position 43, […]) = system: Glu43 (position 43, […])
Glu28 (position 28, […]) = system: Glu28 (position 28, […])
Asp32 (position 32, […]) = system: Asp32 (position 32, […])
Glu73 (position 73, […]) = system: Glu73 (position 73, […])
[1] = 50 mM NaCl (plus 20 mM phosphate and 5 mM polyanionic sclx8), D-fructose-bound RSL in the presence of 5 mM sclx8 (binding has mM affinity and is pH dependent)
[2] = 50 mM NaCl (plus 20 mM phosphate), D-fructose-bound RSL, no sclx8 (0 mM)

Q: With “Ralstonia solanacearum lectin (RSL), fucose-binding lectin (Ralstonia solanacearum)” as the substance, how does the pKa (Asp77 (position 77, […]); [1]) read?
A: < 2.0

Q: What about the pKa (Asp77 (position 77, […]); [2]) of the same substance?
A: < 2.0

Q: What about the pKa (Asp46 (position 46, […]); [1]) of the same substance?
A: 4.2±0.01

Q: And the pKa (Asp46 (position 46, […]); [2])?
A: 3.5±0.01

Q: What about the pKa (Glu43 (position 43, […]); [1]) of the same substance?
A: 6.2±0.01

Q: And the pKa (Glu43 (position 43, […]); [2])?
A: 5.9±0.01

Q: And the pKa (Glu28 (position 28, […]); [1])?
A: < 2.0

Q: And the pKa (Glu28 (position 28, […]); [2])?
A: < 2.0

Q: And the pKa (Asp32 (position 32, […]); [1])?
A: 3.7±0.01

Q: What about the pKa (Asp32 (position 32, […]); [2]) of the same substance?
A: 1.7±0.02

Q: And the pKa (Glu73 (position 73, […]); [1])?
A: < 2.0

Q: What about the pKa (Glu73 (position 73, […]); [2]) of the same substance?
A: < 2.0
